Tests used:
Conditions in all cases: protein: recombinant; intramolecular parallel G4, K+
[1] = target: T1, HMGB1 A box (termed HMGB1) (UniProt P09429 9-78); test: ITC; K+; K+-containing buffer; 20 or 200 mM K+ in Fig S9 titrations (10 uM HMGB1); full buffer, pH and temperature of binding assays not in material (phase-separation assays: 10 mM HEPES pH 7.4, 20 mM K+, 10% PEG8K)
T1 sequence: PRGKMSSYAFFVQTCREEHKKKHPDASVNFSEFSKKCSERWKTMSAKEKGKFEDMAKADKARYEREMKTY

[2] = target: T1, HMGB1 A box (termed HMGB1); test: fluorescence titration; 200 mM K+; K+-containing buffer; 20 or 200 mM K+ in Fig S9 titrations (10 uM HMGB1); full buffer, pH and temperature of binding assays not in material (phase-separation assays: 10 mM HEPES pH 7.4, 20 mM K+, 10% PEG8K)
[3] = target: T1, HMGB1 A box (termed HMGB1); test: fluorescence titration (intrinsic HMGB1 fluorescence, 335 nm); K+; K+-containing buffer; 20 or 200 mM K+ in Fig S9 titrations (10 uM HMGB1); full buffer, pH and temperature of binding assays not in material (phase-separation assays: 10 mM HEPES pH 7.4, 20 mM K+, 10% PEG8K)
[4] = target: T1, HMGB1 A box (termed HMGB1); test: fluorescence titration; 20 mM K+; K+-containing buffer; 20 or 200 mM K+ in Fig S9 titrations (10 uM HMGB1); full buffer, pH and temperature of binding assays not in material (phase-separation assays: 10 mM HEPES pH 7.4, 20 mM K+, 10% PEG8K)

Work on AGGGCGGTGTGGGAAGAGGGAA (structured_DNA) [22R (GQKRAS)] yielded a Kd [1] of 7.04 µM, a Kd [2] of 4.24 µM and a Kd [3] of 4.08 µM. For the same binder, the Kd [4] was 3.24 µM.
